This passage reports Kd results from patent US20130184442A1.

Common to all, as to assay: SPR (Biacore 2000), antibody immobilized on CM5 chip, Langmuir 1:1 model
Experiment [1] addresses anti FITC-BSA mouse IgG2a (monoclonal, BioInvent International AB).
The target in another experiment is polyclonal rabbit IgG.
Experiment [2] addresses anti FITC-BSA human IgG1 (monoclonal, BioInvent International AB).

Regarding “Zwt (recombinantly produced parental Z domain) (designed binder)”, the Kd in experiment [1] turned out to be 550 nM; with polyclonal rabbit IgG it was 60 nM; in experiment [2], 20 nM.

The Kd is the free concentration of one partner at which half of the binding sites on the other are occupied at equilibrium, for simple one-to-one binding. A low value points to a tighter complex.
